Key:
[1] = molecular target: T1, SARS-CoV NTD (N-terminal domain) (SARS-CoV-1, UniProt P59594 14-276); assay: ELISA, coated antigen
T1 sequence: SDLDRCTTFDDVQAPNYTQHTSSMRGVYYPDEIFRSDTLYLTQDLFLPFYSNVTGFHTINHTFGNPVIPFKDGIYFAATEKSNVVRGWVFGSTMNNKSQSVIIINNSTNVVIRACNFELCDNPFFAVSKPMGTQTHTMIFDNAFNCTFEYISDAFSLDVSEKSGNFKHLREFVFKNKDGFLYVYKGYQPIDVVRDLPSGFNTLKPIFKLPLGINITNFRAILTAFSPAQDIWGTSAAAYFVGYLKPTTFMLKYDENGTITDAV

[2] = molecular target: SARS-CoV-2 RBD protein Avi-tag biotinylated (AcroBiosystems SPD-C82E9) (SARS-CoV-2, UniProt P0DTC2 330-518); assay: competition AlphaLISA; competitor human ACE2-mFc; on % inhibition: test concentration or dose not given here
[3] = molecular target: T2, 2019-nCoV RBD (purified recombinant) (SARS-CoV-2, UniProt P0DTC2 330-518)
[4] = molecular target: T3, SARS-CoV RBD (SARS-CoV-1, UniProt P59594 320-502)
[5] = molecular target: SARS-CoV-1 spike, full length, on cells or on pseudotyped virus (SARS-CoV-1, UniProt P59594 14-1255); assay: cell-based or functional assay
[6] = molecular target: T2, 2019-nCoV RBD (purified recombinant); assay: SPR, His-tagged VHH on NTA chip, RBD as analyte
[7] = molecular target: T3, SARS-CoV RBD; assay: SPR, His-tagged VHH on NTA chip, RBD as analyte

B1: SARS VHH-72 (VHH)
VHH: QVQLQESGGGLVQAGGSLRLSCAASGRTFSEYAMGWFRQAPGKEREFVATISWSGGSTYYTDSVKGRFTISRDNAKNTVYLQMNSLKPDDTAVYYCAAAGLGTVVSEWDYDYDYWGQGTQVTVSS
[1]
  binding result: no binding
[2]
  % inhibition: 97%
  IC50: 26.7 nM
[3]
  koff: 3.13 s⁻¹
  kon: 8.09e+07 M⁻¹ s⁻¹
[4]
  koff: 0.0033 s⁻¹
  kon: 2.86e+06 M⁻¹ s⁻¹
[5]
  IC50, pseudotyped lentivirus neutralization, Huh7.5 cells, luciferase: 0.14 µg/mL
[6]
  Kd: 38.7 nM
[7]
  Kd: 1.15 nM

— patent publication US20230227537A1 (VIB VZW, published 2023)
